Patent US20240391961A1

T1: 14-3-3ζ nhpSer58 with a FLAG tag at its N-terminus (Homo sapiens (Human)), P63104
T1 chain: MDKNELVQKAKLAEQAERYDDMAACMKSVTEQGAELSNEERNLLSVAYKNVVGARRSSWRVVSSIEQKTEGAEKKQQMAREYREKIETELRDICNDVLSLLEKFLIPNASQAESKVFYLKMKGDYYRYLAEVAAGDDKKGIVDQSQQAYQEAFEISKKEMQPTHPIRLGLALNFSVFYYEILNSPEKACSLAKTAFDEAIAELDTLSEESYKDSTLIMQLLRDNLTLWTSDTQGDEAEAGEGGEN

B1: serrate RNA effector molecule homolog [OS = Homo sapiens] (protein, UniProt Q9BXP5 2-876, looked up)
chain: GDSDDEYDRRRRDKFRRERSDYDRSRERDERRRGDDWNDREWDRGRERRSRGEYRDYDRNRRERFSPPRHELSPPQKRMRRDWDEHSSDPYHSGYEMPYAGGGGGPTYGPPQPWGHPDVHIMQHHVLPIQARLGSIAEIDLGVPPPVMKTFKEFLLSLDDSVDETEAVKRYNDYKLDFRRQQMQDFFLAHKDEEWFRSKYHPDEVGKRRQEARGALQNRLRVFLSLMETGWFDNLLLDIDKADAIVKMLDAAVIKMEGGTENDLRILEQEEEEEQAGKPGEPSKKEEGRAGAGLGDGERKTNDKDEKKEDGKQAENDSSNDDKTKKSEGDGDKEEKKEDSEKEAKKSSKKRNRKHSGDDSFDEGSVSESESESESGQAEEEKEEAEEALKEKEKPKEEEWEKPKDAAGLECKPRPLHKTCSLFMRNIAPNISRAEIISLCKRYPGFMRVALSEPQPERRFFRRGWVTFDRSVNIKEICWNLQNIRLRECELSPGVNRDLTRRVRNINGITQHKQIVRNDIKLAAKLIHTLDDRTQLWASEPGTPPLPTSLPSQNPILKNITDYLIEEVSAEEEELLGSSGGAPPEEPPKEGNPAEINVERDEKLIKVLDKLLLYLRIVHSLDYYNTCEYPNEDEMPNRCGIIHVRGPMPPNRISHGEVLEWQKTFEEKLTPLLSVRESLSEEEAQKMGRKDPEQEVEKFVTSNTQELGKDKWLCPLSGKKFKGPEFVRKHIFNKHAEKIEEVKKEVAFFNNFLTDAKRPALPEIKPAQPPGPAQILPPGLTPGLPYPHQTPQGLMPYGQPRPPILGYGAGAVRPAVPTGGPPYPHAPYGAGRGNYDAFRGQGGYPGKPRNRMVRGDPRAIVEYRDLDAPDDVDFF
B2: GTPase-activating protein and VPS9 domain-containing protein 1 [OS = Homo sapiens] (protein, UniProt Q14C86 1-1478, looked up)
chain: MVKLDIHTLAHHLKQERLYVNSEKQLIQRLNADVLKTAEKLYRTAWIAKQQRINLDRLIITSAEASPAECCQHAKILEDTQFVDGYKQLGFQETAYGEFLSRLRENPRLIASSLVAGEKLNQENTQSVIYTVFTSLYGNCIMQEDESYLLQVLRYLIEFELKESDNPRRLLRRGTCAFSILFKLFSEGLFSAKLFLTATLHEPIMQLLVEDEDHLETDPNKLIERFSPSQQEKLFGEKGSDRFRQKVQEMVESNEAKLVALVNKFIGYLKQNTYCFPHSLRWIVSQMYKTLSCVDRLEVGEVRAMCTDLLLACFICPAVVNPEQYGIISDAPINEVARFNLMQVGRLLQQLAMTGSEEGDPRTKSSLGKFDKSCVAAFLDVVIGGRAVETPPLSSVNLLEGLSRTVVYITYSQLITLVNFMKSVMSGDQLREDRMALDNLLANLPPAKPGKSSSLEMTPYNTPQLSPATTPANKKNRLPIATRSRSRTNMLMDLHMDHEGSSQETIQEVQPEEVLVISLGTGPQLTPGMMSENEVLNMQLSDGGQGDVPVDENKLHGKPDKTLRFSLCSDNLEGISEGPSNRSNSVSSLDLEGESVSELGAGPSGSNGVEALQLLEHEQATTQDNLDDKLRKFEIRDMMGLTDDRDISETVSETWSTDVLGSDFDPNIDEDRLQEIAGAAAENMLGSLLCLPGSGSVLLDPCTGSTISETTSEAWSVEVLPSDSEAPDLKQEERLQELESCSGLGSTSDDTDVREVSSRPSTPGLSVVSGISATSEDIPNKIEDLRSECSSDFGGKDSVTSPDMDEITHGAHQLTSPPSQSESLLAMFDPLSSHEGASAVVRPKVHYARPSHPPPDPPILEGAVGGNEARLPNFGSHVLTPAEMEAFKQRHSYPERLVRSRSSDIVSSVRRPMSDPSWNRRPGNEERELPPAAAIGATSLVAAPHSSSSSPSKDSSRGETEERKDSDDEKSDRNRPWWRKRFVSAMPKAPIPFRKKEKQEKDKDDLGPDRFSTLTDDPSPRLSAQAQVAEDILDKYRNAIKRTSPSDGAMANYESTGDNHDRDLSSKLLYHSDKEVMGDGESAHDSPRDEALQNISADDLPDSASQAAHPQDSAFSYRDAKKKLRLALCSADSVAFPVLTHSTRNGLPDHTDPEDNEIVCFLKVQIAEAINLQDKNLMAQLQETMRCVCRFDNRTCRKLLASIAEDYRKRAPYIAYLTRCRQGLQTTQAHLERLLQRVLRDKEVANRYFTTVCVRLLLESKEKKIREFIQDFQKLTAADDKTAQVEDFLQFLYGAMAQDVIWQNASEEQLQDAQLAIERSVMNRIFKLAFYPNQDGDILRDQVLHEHIQRLSKVVTANHRALQIPEVYLREAPWPSAQSEIRTISAYKTPRDKVQCILRMCSTIMNLLSLANEDSVPGADDFVPVLVFVLIKANPPCLLSTVQYISSFYASCLSGEESYWWMQFTAAVEFIKTIDDRK
B3: Histone deacetylase complex subunit SAP18 [OS = Homo sapiens] (protein, UniProt O00422 2-153, looked up)
chain: AVESRVTQEEIKKEPEKPIDREKTCPLLLRVFTTNNGRHHRMDEFSRGNVPSSELQIYTWMDATLKELTSLVKEVYPEARKKGTHFNFAIVFTDVKRPGYRVKEIGSTMSGRKGTDDSMTLQSQKFQIGDYLDIAITPPNRAPPPSGRMRPY
B4: transformer-2 protein homolog beta [OS = Homo sapiens] (protein, UniProt P62995 2-288, looked up)
chain: SDSGEQNYGERESRSASRSGSAHGSGKSARHTPARSRSKEDSRRSRSKSRSRSESRSRSRRSSRRHYTRSRSRSRSHRRSRSRSYSRDYRRRHSHSHSPMSTRRRHVGNRANPDPNCCLGVFGLSLYTTERDLREVFSKYGPIADVSIVYDQQSRRSRGFAFVYFENVDDAKEAKERANGMELDGRRIRVDFSITKRPHTPTPGIYMGRPTYGSSRRRDYYDRGYDRGYDDRDYYSRSYRGGGGGGGGWRAAQDRDQIYRRRSPSPYYSRGGYRSRSRSRSYSPRRY
B5: WD and tetratricopeptide repeats protein 1 [OS = Homo sapiens] (protein, UniProt Q8N5D0 1-677, looked up)
chain: MAKVNITRDLIRRQIKERGALSFERRYHVTDPFIRRLGLEAELQGHSGCVNCLEWNEKGDLLASGSDDQHTIVWDPLHHKKLLSMHTGHTANIFSVKFLPHAGDRILITGAADSKVHVHDLTVKETIHMFGDHTNRVKRIATAPMWPNTFWSAAEDGLIRQYDLRENSKHSEVLIDLTEYCGQLVEAKCLTVNPQDNNCLAVGASGPFVRLYDIRMIHNHRKSMKQSPSAGVHTFCDRQKPLPDGAAQYYVAGHLPVKLPDYNNRLRVLVATYVTFSPNGTELLVNMGGEQVYLFDLTYKQRPYTFLLPRKCHSSGEVQNGKMSTNGVSNGVSNGLHLHSNGFRLPESRGHVSPQVELPPYLERVKQQANEAFACQQWTQAIQLYSKAVQRAPHNAMLYGNRAAAYMKRKWDGDHYDALRDCLKAISLNPCHLKAHFRLARCLFELKYVAEALECLDDFKGKFPEQAHSSACDALGRDITAALFSKNDGEEKKGPGGGAPVRLRSTSRKDSISEDEMVLRERSYDYQFRYCGHCNTTTDIKEANFFGSNAQYIVSGSDDGSFFIWEKETTNLVRVLQGDESIVNCLQPHPSYCFLATSGIDPVVRLWNPRPESEDLTGRVVEDMEGASQANQRRMNADPLEVMLLNMGYRITGLSSGGAGASDDEDSSEGQVQCRPS
B6: Serine/arginine-rich splicing factor 10 [OS = Homo sapiens], O75494 1-262 (protein, UniProt O75494 1-262, looked up)
chain: MSRYLRPPNTSLFVRNVADDTRSEDLRREFGRYGPIVDVYVPLDFYTRRPRGFAYVQFEDVRDAEDALHNLDRKWICGRQIEIQFAQGDRKTPNQMKAKEGRNVYSSSRYDDYDRYRRSRSRSYERRRSRSRSFDYNYRRSYSPRNSRPTGRPRRSRSHSDNDRFKHRNRSFSRSKSNSRSRSKSQPKKEMKAKSRSRSASHTKTRGTSKTDSKTHYKSGSRYEKESRKKEPPRSKSQSRSQSRSRSKSRSRSWTSPKSSGH
B7: 14-3-3 protein sigma [OS = Homo sapiens], P31947 1-248 (protein, UniProt P31947 1-248, looked up)
chain: MERASLIQKAKLAEQAERYEDMAAFMKGAVEKGEELSCEERNLLSVAYKNVVGGQRAAWRVLSSIEQKSNEEGSEEKGPEVREYREKVETELQGVCDTVLGLLDSHLIKEAGDAESRVFYLKMKGDYYRYLAEVATGDDKKRIIDSARSAYQEAMDISKKEMPPTNPIRLGLALNFSVFHYEIANSPEEAISLAKTTFDEAMADLHTLSEDSYKDSTLIMQLLRDNLTLWTADNAGEEGGEAPQEPQS
B8: 14-3-3 protein theta [OS = Homo sapiens], P27348 1-245 (protein, UniProt P27348 1-245, looked up)
chain: MEKTELIQKAKLAEQAERYDDMATCMKAVTEQGAELSNEERNLLSVAYKNVVGGRRSAWRVISSIEQKTDTSDKKLQLIKDYREKVESELRSICTTVLELLDKYLIANATNPESKVFYLKMKGDYFRYLAEVACGDDRKQTIDNSQGAYQEAFDISKKEMQPTHPIRLGLALNFSVFYYEILNNPELACTLAKTAFDEAIAELDTLNEDSYKDSTLIMQLLRDNLTLWTSDSAGEECDAAEGAEN
B9: 14-3-3 protein epsilon [OS = Homo sapiens], P62258 1-255 (protein, UniProt P62258 1-255, looked up)
chain: MDDREDLVYQAKLAEQAERYDEMVESMKKVAGMDVELTVEERNLLSVAYKNVIGARRASWRIISSIEQKEENKGGEDKLKMIREYRQMVETELKLICCDILDVLDKHLIPAANTGESKVFYYKMKGDYHRYLAEFATGNDRKEAAENSLVAYKAASDIAMTELPPTHPIRLGLALNFSVFYYEILNSPDRACRLAKAAFDDAIAELDTLSEESYKDSTLIMQLLRDNLTLWTSDMQGDGEEQNKEALQDVEDENQ

Target: 14-3-3ζ nhpSer58 with a FLAG tag at its N-terminus (Homo sapiens (Human)) (UniProt P63104)
Conditions: not given

Compared with B1, B2 is higher in FC: 0.12 fold for the first, 0.177 fold for the second.

Going from B3 to B4, the FC rises from 0.187 fold to 0.194 fold.

Work on B5 yielded an FC of 0.202 fold.

Target: T1, 14-3-3ζ nhpSer58 with a FLAG tag at its …
Conditions: remark: other sources report otherwise

Going from B6 to B7, the FC rises from 0.0496 fold to 0.0526 fold.

First: B8
Second: B9
The FC of the first is lower: 0.0473 fold for the first, 0.0482 fold for the second.
